Seven molecules from paper PMC9482650, “Quantitative fragmentomics allow affinity mapping of interactomes” (Nature Communications, 2022) can be followed below.

Common to all, as to test: holdup assay
Holding throughout (design): key: below the threshold = too weak to quantify, mostly under pKd 3.1 to 4

The target in assay [1] is APBA1_2, Q02410. The note with it: plain residues with an end cap or a label only.
Assay [2] deals with ARHGEF12, Q9NZN5-2. The note with it: modified: phosphorylated residue at S732 (position -3 from the C-terminal residue); phosphorylated residue at T734 (position -1 from the C-terminal residue).
Chain of ARHGEF12, Q9NZN5-2 (Q9NZN5 other isoform, or with tags, fused parts or gaps): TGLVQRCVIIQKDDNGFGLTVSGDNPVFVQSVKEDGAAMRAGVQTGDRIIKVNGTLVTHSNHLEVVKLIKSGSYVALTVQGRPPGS
Assay [3] has as its target HTRA1, Q92743. The note with it: modified: phosphorylated residue at T733 (position -2 from the C-terminal residue); phosphorylated residue at T734 (position -1 from the C-terminal residue).
The target in assay [4] is MAGI2_2, Q86UL8.
Chain of MAGI2_2, Q86UL8 (Q86UL8 410-522): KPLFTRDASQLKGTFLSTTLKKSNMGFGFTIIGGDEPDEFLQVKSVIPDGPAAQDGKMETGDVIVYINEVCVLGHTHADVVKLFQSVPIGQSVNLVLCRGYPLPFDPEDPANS
Assay [5] deals with MAGI3_2, Q5TCQ9. The note with it: modified: O-phospho-L-serine at S732 (position -3 from the C-terminal residue); O-phospho-L-threonine at T734 (position -1 from the C-terminal residue).
Chain of MAGI3_2, Q5TCQ9 (Q5TCQ9 398-503): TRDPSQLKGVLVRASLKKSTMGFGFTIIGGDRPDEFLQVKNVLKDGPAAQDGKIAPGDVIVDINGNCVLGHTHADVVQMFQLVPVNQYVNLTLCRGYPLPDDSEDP
Assay [6] has as its target MAST2, Q6P0Q8.
Assay [7] addresses PARD3B_1, Q8TEW8.
Assay [8] concerns the target PDZD7_3, Q9H5P4. The note with it: modified: phosphorylated residue at S732 (position -3 from the C-terminal residue); phosphorylated residue at T733 (position -2 from the C-terminal residue); phosphorylated residue at T734 (position -1 from the C-terminal residue).
For assay [9], the target named is PDZRN4_1, Q6ZMN7. The note with it: modified: O-phospho-L-serine at S732 (position -3 from the C-terminal residue); O-phospho-L-threonine at T734 (position -1 from the C-terminal residue).
Chain of PDZRN4_1, Q6ZMN7 (Q6ZMN7 213-318): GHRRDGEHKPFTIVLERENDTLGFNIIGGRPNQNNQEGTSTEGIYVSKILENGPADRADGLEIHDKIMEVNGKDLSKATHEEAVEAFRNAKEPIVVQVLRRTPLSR
Assay [10] addresses PTPN3, P26045. The note with it: modified: O-phospho-L-serine at S732 (position -3 from the C-terminal residue); O-phospho-L-threonine at T734 (position -1 from the C-terminal residue).
For assay [11], the target named is SCRIB_1, Q14160. The note with it: modified: O-phospho-L-serine at S732 (position -3 from the C-terminal residue); O-phospho-L-threonine at T734 (position -1 from the C-terminal residue).
Chain of SCRIB_1, Q14160 (Q14160 718-814): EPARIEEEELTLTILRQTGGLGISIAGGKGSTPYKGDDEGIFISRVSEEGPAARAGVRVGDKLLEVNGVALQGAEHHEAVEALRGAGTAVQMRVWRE
For assay [12], the target named is SCRIB_3, Q14160.
Assay [13] has as its target SNTA1, Q13424. The note with it: modified: O-phospho-L-serine at S732 (position -3 from the C-terminal residue); O-phospho-L-threonine at T734 (position -1 from the C-terminal residue).
The target of assay [14] is SNTB1, Q13884. The note with it: modified: O-phospho-L-serine at S732 (position -3 from the C-terminal residue); phosphorylated residue at T734 (position -1 from the C-terminal residue).
Chain of SNTB1, Q13884 (Q13884 107-196): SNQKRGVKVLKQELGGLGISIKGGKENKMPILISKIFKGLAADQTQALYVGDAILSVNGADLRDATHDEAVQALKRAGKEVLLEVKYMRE
For assay [15], the target named is SNTG2, Q9NY99. The note with it: modified: phosphorylated residue at S732 (position -3 from the C-terminal residue); phosphorylated residue at T734 (position -1 from the C-terminal residue).
Chain of SNTG2, Q9NY99 (Q9NY99 70-159): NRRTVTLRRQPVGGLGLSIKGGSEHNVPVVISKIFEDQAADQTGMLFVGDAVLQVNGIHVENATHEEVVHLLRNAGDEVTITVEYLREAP
Assay [16] deals with SNX27, Q96L92. The note with it: modified: phosphorylated residue at S732 (position -3 from the C-terminal residue); phosphorylated residue at T734 (position -1 from the C-terminal residue).
Assay [17] concerns the target SYNJ2BP, P57105.
Assay [18] has as its target FRMPD4, Q14CM0. The note with it: plain residues with an end cap or a label only (N-terminal biotin on a linker: ado-ado).
In assay [19] the target is IL16_4, Q14005. The note with it: plain residues with an end cap or a label only (N-terminal biotin on a linker: ado-ado).
Chain of IL16_4, Q14005 (Q14005 1229-1329): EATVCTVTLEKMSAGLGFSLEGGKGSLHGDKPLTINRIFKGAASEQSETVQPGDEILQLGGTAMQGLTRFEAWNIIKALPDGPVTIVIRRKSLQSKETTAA
For assay [20], the target named is MAGI2_4, Q86UL8. The note with it: plain residues with an end cap or a label only (N-terminal biotin on a linker: ado-ado).
Chain of MAGI2_4, Q86UL8 (Q86UL8 772-865): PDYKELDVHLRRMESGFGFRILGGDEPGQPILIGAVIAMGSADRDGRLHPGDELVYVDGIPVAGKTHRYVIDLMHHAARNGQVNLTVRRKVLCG
The target of assay [21] is NHERF4_2, Q86UT5. The note with it: plain residues with an end cap or a label only (N-terminal biotin on a linker: ado-ado).
Chain of NHERF4_2, Q86UT5 (Q86UT5 220-308): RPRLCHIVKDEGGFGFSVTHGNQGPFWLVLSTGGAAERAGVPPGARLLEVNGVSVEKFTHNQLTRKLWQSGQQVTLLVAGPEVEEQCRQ
Assay [22] has as its target PARD3_3, Q8TEW0. The note with it: plain residues with an end cap or a label only (N-terminal biotin on a linker: ado-ado).
For assay [23], the target named is APBA2_1, Q99767. The note with it: plain residues with an end cap or a label only.
Chain of APBA2_1, Q99767 (Q99767 565-653): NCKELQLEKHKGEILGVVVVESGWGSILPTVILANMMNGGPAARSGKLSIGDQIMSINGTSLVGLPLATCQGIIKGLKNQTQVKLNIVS
For assay [24], the target named is APBA1_1, Q02410. The note with it: plain residues with an end cap or a label only.
Chain of APBA1_1, Q02410 (Q02410 other isoform, or with tags, fused parts or gaps): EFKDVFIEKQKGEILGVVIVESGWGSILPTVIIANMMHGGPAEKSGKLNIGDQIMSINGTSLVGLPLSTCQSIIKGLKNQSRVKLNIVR
Assay [25] has as its target AHNAK1, Q09666. The note with it: plain residues with an end cap or a label only.
Assay [26] concerns the target DLG1_2, Q12959. The note with it: plain residues with an end cap or a label only (N-terminal biotin on a linker: ado-ado).
For assay [27], the target named is DLG2_3, Q15700. The note with it: plain residues with an end cap or a label only (N-terminal biotin on a linker: ado-ado).
The target in assay [28] is GRASP, Q7Z6J2. The note with it: plain residues with an end cap or a label only (N-terminal biotin on a linker: ado-ado).
Chain of GRASP, Q7Z6J2 (Q7Z6J2 96-193): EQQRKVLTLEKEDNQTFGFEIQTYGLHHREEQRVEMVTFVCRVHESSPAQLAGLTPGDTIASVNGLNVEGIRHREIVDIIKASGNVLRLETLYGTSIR
The target in assay [29] is T1, LIN7B, Q9HAP6.
T1 sequence (Q9HAP6 88-185, limits assumed, looked up): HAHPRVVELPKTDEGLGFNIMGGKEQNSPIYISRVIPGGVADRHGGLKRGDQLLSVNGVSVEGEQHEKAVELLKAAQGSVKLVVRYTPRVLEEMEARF
The note with it: plain residues with an end cap or a label only (N-terminal biotin on a linker: ado-ado).

Assay [30] concerns the target T2, MPP6, Q9NZW5.
T2 sequence (Q9NZW5 125-219, limits assumed, looked up): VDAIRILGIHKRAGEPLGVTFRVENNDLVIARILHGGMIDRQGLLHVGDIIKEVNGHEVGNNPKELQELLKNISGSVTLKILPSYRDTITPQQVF
The note with it: plain residues with an end cap or a label only (N-terminal biotin on a linker: ado-ado).

The target of assay [31] is T3, NHERF3_1, Q5T2W1.
T3 sequence (Q5T2W1 4-100, limits assumed, looked up): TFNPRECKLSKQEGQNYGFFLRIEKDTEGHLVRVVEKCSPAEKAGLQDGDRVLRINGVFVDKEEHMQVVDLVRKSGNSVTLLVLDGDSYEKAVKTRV
The note with it: plain residues with an end cap or a label only (N-terminal biotin on a linker: ado-ado).

In assay [32] the target is NHERF4_4, Q86UT5. The note with it: plain residues with an end cap or a label only (N-terminal biotin on a linker: ado-ado).
Chain of NHERF4_4, Q86UT5 (Q86UT5 464-550): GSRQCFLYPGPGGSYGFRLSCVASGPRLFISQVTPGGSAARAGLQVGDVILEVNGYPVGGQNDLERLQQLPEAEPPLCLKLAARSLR
Setting [33] is: modified: O-phospho-L-serine at S732 (position -3 from the C-terminal residue), O-phospho-L-threonine at T734 (position -1 from the C-terminal residue).
[34] abbreviates: plain residues with an end cap or a label only (N-terminal biotin on a linker: ado-ado).

Chain of PARD3_3, Q8TEW0 (Q8TEW0 582-685): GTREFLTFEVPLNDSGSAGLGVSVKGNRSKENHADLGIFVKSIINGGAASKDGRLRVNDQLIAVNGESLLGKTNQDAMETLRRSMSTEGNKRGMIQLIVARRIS
Chain of SNTA1, Q13424 (Q13424 84-171): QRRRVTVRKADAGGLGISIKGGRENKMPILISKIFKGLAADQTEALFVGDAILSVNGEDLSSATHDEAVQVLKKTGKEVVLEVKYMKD
Chain of FRMPD4, Q14CM0 (Q14CM0 67-160): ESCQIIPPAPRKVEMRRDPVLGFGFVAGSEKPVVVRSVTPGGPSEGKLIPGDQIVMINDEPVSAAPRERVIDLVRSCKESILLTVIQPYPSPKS
Chain of APBA1_2, Q02410 (Q02410 742-822): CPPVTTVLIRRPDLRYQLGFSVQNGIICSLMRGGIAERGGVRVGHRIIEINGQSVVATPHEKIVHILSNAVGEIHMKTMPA
Chain of PDZD7_3, Q9H5P4 (Q9H5P4 858-953): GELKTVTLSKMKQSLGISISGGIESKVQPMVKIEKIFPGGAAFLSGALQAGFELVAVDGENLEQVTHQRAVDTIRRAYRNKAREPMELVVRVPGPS
Chain of HTRA1, Q92743 (Q92743 365-480): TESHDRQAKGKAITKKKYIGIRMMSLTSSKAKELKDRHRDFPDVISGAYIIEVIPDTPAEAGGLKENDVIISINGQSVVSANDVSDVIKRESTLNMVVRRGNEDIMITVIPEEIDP
Chain of DLG1_2, Q12959 (Q12959 314-412): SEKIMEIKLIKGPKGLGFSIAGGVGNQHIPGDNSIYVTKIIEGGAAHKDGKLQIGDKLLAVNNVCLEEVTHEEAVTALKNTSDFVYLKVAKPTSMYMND
Chain of AHNAK1, Q09666 (Q09666 2-98): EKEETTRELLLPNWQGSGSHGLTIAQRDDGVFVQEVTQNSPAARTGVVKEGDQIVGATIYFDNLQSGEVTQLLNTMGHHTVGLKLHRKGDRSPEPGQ
Chain of PTPN3, P26045 (P26045 505-587): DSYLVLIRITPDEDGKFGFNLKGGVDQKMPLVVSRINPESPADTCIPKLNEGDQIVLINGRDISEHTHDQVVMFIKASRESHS

B1: a stretch of P03149, P03149 (peptide)
chain: RRSQSRESQC
As for B1, the pKd (as a rule, the negative decadic logarithm of the Kd, by convention in mol/L) in [1] is “below the threshold”.

B2: a stretch of Q15418, Q15418 (peptide)
chain: RVRKLPSTTL
For the molecule B2, the pKd result in assay [2] is on record as “below the threshold”; in [3], “below the threshold”; in assay [4] (modified: O-phospho-L-threonine at T734 (position -1 from the C-terminal residue), phosphorylated residue at S732 (position -3 from the C-terminal residue)) it was “below the threshold”; in assay [5], “below the threshold”; in assay [6] (setting [33]) it was “below the threshold”; in [7] (modified: phosphorylated residue at S732 (position -3 from the C-terminal residue), phosphorylated residue at T733 (position -2 from the C-terminal residue), phosphorylated residue at T734 (position -1 from the C-terminal residue)), “below the threshold”. Besides, the pKd result in assay [8], in assay [9], in assay [10], in assay [11], in [12] (setting [33]) and in assay [13] was “below the threshold” throughout. Further, the pKd entry in assay [14], in [15], in assay [16] and in assay [17] (setting [33]) was “below the threshold” throughout.

B3: PALLS, Q8WX93 (peptide)
chain: NTALVESEDL
Regarding B3, the pKd in [18] turned out to be 3.65; in [19] it was 3.57; in assay [20], 3.59; in assay [21], 3.48; in [7] (setting [34]) it was 3.58; in assay [22], 3.61. The figures for the pKd in assay [12] (setting [34]) and in assay [17] (setting [34]) were 3.73 and 3.49, respectively.

B4: a stretch of P69706, P69706 (peptide)
chain: RRSQSRESQC
Regarding B4, the pKd entry in [23] is “below the threshold”.

B5: a stretch of P03148, P03148 (peptide)
chain: RRSQSRESQC
For the molecule B5, in [24], the pKd entry was “below the threshold”.

B6: a stretch of P03146, P03146 (peptide)
chain: RRSQSRESQC
B6: the pKd result in assay [25] is “below the threshold”.

B7: HNRNPK, P61978 (peptide)
chain: VKQYADVEGF
Consider B7, for which the pKd came to 3.72 in [26]; 3.55 in [27]; 3.76 in [28]; 3.51 in [19]; 3.61 in assay [29]; 3.56 in assay [4] (setting [34]). For the same molecule, the pKd in assay [6] (setting [34]) worked out at 3.87; in assay [30] it was 3.7; in assay [31], 3.53; in [32], 3.72.
